The target of data set [1] is T1, SRMS (Src-related kinase lacking C-terminal regulatory tyrosine and N-terminal myristylation sites) (Homo sapiens, UniProt Q9H3Y6).
T1 construct: human SRMS kinase domain (residues 221 to 486)
Briefly: peptide substrate mobility shift kinase assay with purified recombinant kinase domain ([…] SRMS, […] ATP). It counts as biochemical.

For data set [2] the following is noted: phosphorylation at Y54.

T1 sequence (Q9H3Y6 221-486): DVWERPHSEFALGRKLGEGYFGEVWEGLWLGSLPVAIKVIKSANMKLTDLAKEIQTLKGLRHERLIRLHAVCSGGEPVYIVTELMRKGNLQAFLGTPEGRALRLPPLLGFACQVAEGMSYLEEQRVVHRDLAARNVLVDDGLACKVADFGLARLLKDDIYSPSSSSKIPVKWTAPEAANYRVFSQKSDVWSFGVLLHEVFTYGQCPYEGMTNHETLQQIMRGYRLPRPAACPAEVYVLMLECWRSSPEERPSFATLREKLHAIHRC

A word on the IC50: it is the concentration at which inhibition is half-maximal. For the compound `C=CC(=O)N1CCC[C@@H](n2nc(-c3ccc(Oc4ccccc4)cc3)c3c(N)ncnc32)C1` [ibrutinib], the IC50 in data set [1] is 33 nM.
As for FKBP51: ibrutinib (SRMS inhibitor), in data set [2], the degradation_or_half_life entry is listed as “decreases”.
In the case of FKBP51: SRMS knockout (CRISPR/Cas9), the degradation_or_half_life result in data set [2] is given as “decreases”.
